Test results taken from the supplement of paper PMC12764529.
± gives the half width of the 95% confidence interval.

Assays:
[1] = folding stability dG unfold from chymotrypsin proteolysis; higher = more stable
Procedure: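 Folding stability of de novo designed mini-proteins (<80 aa, no Cys; designed by TrROS, TrMRF, ProteinMPNN and the joint model) was measured by cDNA display proteolysis with trypsin and chymotrypsin. Each protease was used at 11 concentrations in a threefold dilution series plus a no-protease condition. K50 was inferred by Bayesian fitting of sequencing counts, and dG unfold was derived against a sequence-predicted unfolded-state K50 (Tsuboyama et al. method). Sequences shown include variable-length N-terminal GS-type padding (SAGGSAGG...) inside a display construct carrying a PA tag. Rows were kept only if the AF2 dimer inter-PAE was >15, to exclude likely homo-oligomers.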

[2] = folding stability dG unfold (combined trypsin and chymotrypsin); higher = more stable
Procedure, shortened: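 Bayesian fitting of sequencing counts gave K50 for each design. Unfolding free energy followed by setting this against a sequence-predicted unfolded-state K50 and a shared folded-state K50, either per protease or with trypsin and chymotrypsin combined. The designs, under 80 residues and lacking cysteine, were digested in a PA-tagged cDNA display format at 11 threefold-diluted protease concentrations and without protease, and only those with AlphaFold2 dimer inter-PAE above 15 were kept.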

| Sequence | folding stability dG unfold [1] [kcal/mol] | folding stability dG unfold [2] [kcal/mol] |
| --- | --- | --- |
| SAGGSAGGSAGGMIKVLEKKEFTPPTGGKEYELKTLDESNGTESIIKFPKEEYKNLKIPSAGGSAGGSAGGS [r10_326_JUSTAS] | 0.681 ± 0.12 | 0.145 ± 0.2 |
| SAGGSAGGSAGAYSATPVEERRLPDGSTLVRERVTDPATGTPALREVLVTDEGVEERLLPSAGGSAGGSAGG [r11_991_JUSTAS] | 0.415 ± 0.098 | -0.458 ± 0.1 |
| SAGGSAGGSAGMRLLTEEIVVEQFFYETGETRLTVLTKEILVVPPRPVPVPLPEGGLRLLSAGGSAGGSAGG [r11_307_JUSTAS] | 0.925 ± 0.11 | 0.184 ± 0.13 |
| SAGGSAGGSAGSMDSLPMPQVTPKVVELNVPPEEAEKLKKELGAKEIKFSPEGKLIIYLESAGGSAGGSAGG [r11_64_JUSTAS] | -0.353 ± 0.078 | -0.453 ± 0.2 |
| SAGGKKVIIPFKSPEQVKDWLENAPPGHDKVEIFSPETGYMAEFEVDPKENKIKEIKWERFDPDDGMFSAGG [r13_945_TrROS] | 0.0373 ± 0.28 | -0.372 ± 0.46 |
| SAGGSSLPPEYTVTEVEREFTTPEDVAEARAAAEAAAAAGAEVLEVTVERPEDGSYRVRFTLATPRSAGGSA [r2_350_JUSTAS] | 0.611 ± 0.22 | 0.0151 ± 0.24 |
| SAGGSAGGSPKKRTVEIDEWDPEEGNVRARIRDDDEEREFPFRTPEDLEDLANEGGIDKITPHSAGGSAGGS [r12_421_TrROS] | 0.518 ± 0.027 | 0.0607 ± 0.095 |
| SAGGSAGGSAGGLKELADKLNPGFEIRVENIEPTPGPVRINVRAPNEGVPRSIPIDPDDISAGGSAGGSAGG [r7_303_TrROS] | 0.993 ± 0.018 | 0.479 ± 0.043 |
| SAGKVLEELGYELVEEKEEEIGDVKIITATFPVGESPVVVTAEVTEKKEDDKPIVKVKVTVTPLPPEAPSAG [r5_516_JUSTAS] | 0.977 ± 0.17 | 0.58 ± 0.51 |
| SGMVTLEDIAAAPPGTPVVVTTKKQGSKNLTFIDAVVDGARSSASYPSIEEARKELEAVGYPVEFVDPAESA [r9_1021_JUSTAS] | 0.143 ± 0.066 | -0.429 ± 0.19 |
| SAGWDLKIEPEPNPDNGMRMINIEYEDPDGDGPYTVSIMYHNGKIKAVEVQDPNTGEPELTPEALEELFSAG [r5_872_TrROS] | 0.14 ± 0.26 | -0.305 ± 0.49 |
| SAGGSAGGSGGTIKLPLYPPEGKEYKGTIPKEKLEAAIAKGEPIKVTLKTKGKEVKEYTIPIKSAGGSAGGS [r12_991_JUSTAS] | -0.582 ± 0.44 | -0.983 ± 0.48 |
| SAGGSAGGSAGGMVKKTYEKKKPPGSMEYVTEKEYDPKTNTVKTTTVPVSEYKNIPNKNSAGGSAGGSAGGS [r10_1077_JUSTAS] | -0.0965 ± 0.56 | < -1 |
| SAGGSAKTIVIPAEDLTPEEIKALAEENKDKIVIYNKKTKKVVTIEVKDGKITKVEEFPVSEEELKSAGGSA [r15_751_TrROS_Hall] | 0.173 ± 0.3 | -0.256 ± 0.67 |
| SAGKMTIEIVVEVKPGMTEEELKEKLEELVKKLKEEFPELKNLEIKIVEVKVERLEDGTLRVTVKIEVKSAG [r5_985_TrROS_Hall] | 3.08 ± 0.24 | > 6 |
| SAGGSAGGSAGPDVEVVIIPVDPETGEPLDALPIPIPSPEGGLVDEIVKAIPPDRYRVLASAGGSAGGSAGG [r17_339_TrMRF] | -0.336 ± 0.45 | < -1 |
| SAGMTPEDLKNGKPVKVPIPIPIRDPDGKPWAEIPIKGPMPVKDIMEVIETIREIARELKIPPSDGDKNSAG [r5_606_TrROS] | -0.743 ± 0.53 | < -1 |
| SAGGTIKPGQPVRIRAEWYNGNKEWTHTHEFPLPENQTLDDVADEILEHLPPEHNKNFKVRIEIEPVSAGGS [r16_321_TrROS] | 0.904 ± 0.1 | 0.373 ± 0.11 |
| SAGEGSRSPGVVLHVTTPTEPLVVREPVAPDEDPEAVLERLAAEVRAALGPDTTVSGEVLSPAELARAASAG [r5_583_JUSTAS] | -0.465 ± 0.18 | -0.738 ± 0.23 |
| SAGGGMEEVAKKLGVPEDARLEVLKVERYYYTREVRDPLFEEGKPVGEKIIPRPYYSEKVDYKLFDKPSAGG [r13_482_JUSTAS] | -0.288 ± 0.32 | < -1 |
| SAGGSAGGSAGGSNPNKPKEFYRIEYTHGGKPHTHMFPPNEPIPPGPNMKVDPFPADDLSAGGSAGGSAGGS [r4_107_TrROS] | -0.131 ± 0.23 | -0.688 ± 0.69 |
| SAGGSAGGSAGGKKKVKILEVKKIPELNEIVVVIETENGKPVLVPLKPGKTLEDVKKEISAGGSAGGSAGGS [r10_984_TrMRF] | 0.913 ± 0.042 | 0.44 ± 0.21 |
| SAGRIKSIQINPYENPNGQYPITVRVRWPGNGKERDRNFPMSPNDARNQAKELAKELPGKPLEIDEITSAGG [r19_317_TrROS] | -0.545 ± 0.15 | -0.943 ± 0.19 |
| SAGSVSLPPGAVLTEERKLPDGSLVRTTTTVSPVPELPVDRIETTTEFYAPGGEKIGTETSSSLRPPGESAG [r5_787_JUSTAS] | -0.0977 ± 0.13 | -0.493 ± 0.35 |
